Test results from PMC6050537, “Inhibition of low-density lipoprotein receptor degradation with a cyclic peptide that disrupts the homodimerization of IDOL E3 ubiquitin ligase” (Chemical Science, 2018).

Experiments:
Full length IDOL (1–445) [1] = target: Full length IDOL (1–445) (UniProt Q8WY64); assay: MST; increasing concentrations of unlabelled IDOL titrated into a 45 nM solution of dye-labelled IDOL; homodimer to monomers
Full length IDOL (1–445) [2] = target: Full length IDOL (1–445) (UniProt Q8WY64); assay: MST; as a6 but in the presence of RINGpep2 (100 μM); apparent; homodimer to monomers

Kd (Full length IDOL (1–445) [1]): 2.9 µM
apparent KD in the presence of RINGPep2 (100 μM) (Full length IDOL (1–445) [2]): 11.1 µM
Substance: Full length IDOL (1–445) (from UniProt Q8WY64 1-445) (enzyme)
